Results on one substance are retold here after PMC5120204, “Identification of an orally active small-molecule PTHR1 agonist for the treatment of hypoparathyroidism” (Nature Communications, 2016).

What is called Tmax is the time from dosing to the highest level. Broadly, the AUC is the area under the concentration-time curve, a measure of exposure. Low values mean low exposure, high ones high exposure. Broadly, the Cmax is the peak of the concentration-time curve.

Read-outs that look alike come from different tables or passages of the source.

Details of series [1]: method as in earlier work. The conditions noted are these: rat; ref Calcifi Tissue Int 2010 87:485, J Bone Miner Res 2013 28:2232, J Pharmcol Exp Ther 2009 330:169; cited from earlier work.
In the next series the test system is patients. Also noted: method as in PMID 23649554. The conditions noted are these: once-daily dosing; cited from earlier work.
Series [2] in a line: Pharmacokinetics in TPTX rats. The series is classed as in vivo, rat.
For series [3], the system named is TPTX rats. Kind of series: Repeated administration study in TPTX rats, study 1. The series is classed as in vivo, rat. The procedure:
TPTX was carried out in 6-week-old female Crl:CD (SD) rats (Charles River Laboratories). Rats with serum Ca levels of <8.0 mg dl^−1 at 5 days after surgery were used in the following experiments. The rats were divided into four groups both in study 1 and 2, each with a similar mean value of serum Ca levels and body weight. Sample sizes were determined as described in the above single administration study. To evaluate the calcemic effects of PCO371 and hPTHs, we defined a target therapeutic range for serum Ca of 7.6–11.2 mg dl^−1, which corresponds to the low normal to normal range of serum Ca levels.
TPTX rats were treated twice daily (at around 09:00 and 19:00 hours) orally (vehicle or PCO371 at 1, 3 or 9 mg kg^−1) or subcutaneously [hPTH(1–34) or vehicle at 9 nmol kg^−1] for 4 weeks. Four rats were assigned to sham control, and treated with vehicle for PCO371. Vehicles for PCO371 and hPTH(1–34) were the same as in the OVX rat study. Under isoflurane anaesthesia, jugular vein blood was collected immediately before and at 6 and 10 h (for PCO371) or at 1 and 10 h (for hPTH) after administrations to measure the serum Ca levels on days 1 (the first dosing day), 7, 14, 22 and 29. Urine was collected for 24 h by using metabolic cages on days 29–30, and Ca excretion was calculated from urine volume and Ca level. Under isoflurane anaesthesia, jugular vein blood was collected 10 h after administrations to measure serum 1,25(OH)2D3 levels on Day 29 by using a 1,25(OH)2D3 RIA kit (Fujirebio). Four or five TPTX rats were assigned to each dose group. Serum and urine Ca levels were measured in the same way as in the single-dosing study. In another experiment, TPTX rats were treated subcutaneously once daily with hPTH(1–84) at 9 nmol kg^−1, for 4 weeks. Serum Ca was measured immediately before and at 2, 6 and 10 h after administration on day 1 (the first dosing day), 7, 14, 21 and 28 using the same method as described above. Urine was collected for 24 h by using metabolic cages on days 28 and 29, and Ca excretion was calculated from urine volume and Ca level.

In series [4] the test system is TPTX rats. Kind of series: Single administration study in TPTX rats. Format: in vivo, rat. Conditions: TPTX studies, 0.9 nmol/kg. The procedure:
TPTX was carried out in 6-week-old female Crl:CD(SD) rats (Charles River Laboratories). Rats with serum Ca levels of <8.0 mg dl^−1 at 5 days after surgery were used for the experiment. The rats were divided into six groups, each with a similar mean value of serum Ca levels and body weight. TPTX rats were treated once orally (vehicle or PCO371 at 1.3, 6.5 or 33 mg kg^−1) or subcutaneously (vehicle or hPTH(1–84) (Chugai Pharmaceutical) at 9 nmol kg^−1). Six TPTX rats were assigned to each dose group. The sample size was determined based on previous experiments and a published study with hPTHs and LA-PTH in our laboratories[24] (n=5–6). Vehicle for PCO371 was the same as in the OVX rat study, and phosphate-citrate buffer (pH 6.0) was used as vehicle for hPTH(1–84). Under isoflurane anaesthesia, jugular vein blood was collected immediately before and at 1, 2, 6, 10 and 24 h after administrations to measure serum Ca (o-CPC method, Wako Pure Chemical Industries) and Pi levels (xanthine oxidase method, Wako Pure Chemical Industries).
In another experiment, the effects of a single treatment with PCO371 or hPTH(1–34) on serum Ca and Pi in TPTX rats (6-week-old) were evaluated at the dose of 3, 9.5 or 30 mg kg^−1 (PCO371, p.o.) or 9 nmol kg^−1 (hPTH(1–34), s.c.) according to the same method as that described above.

For series [5] the following is noted: human; ref Calcifi Tissue Int 2010 87:485, J Bone Miner Res 2013 28:2232, J Pharmcol Exp Ther 2009 330:169; cited from earlier work.

As for “hPTH(1–84): the full-length, native PTH molecule called human PTH(1–84) [reference compound]”, the Tmax in series [1] is 5 to 15 min. Moreover, in the series on patients, the “duration of observed effects” value is listed as “up to 24 h”, the “patients with hypercalcemia at peak times” value is 71% and the “time of peak Ca levels after administration” value was “around 7 h”. Besides, in series [2] (s.c. 30 nmol kg-1), the AUC is 1.80 ± 0.78 ng·h/mL, the Cmax was 3.42 ± 1.10 ng/mL, the T1/2 turned out to be 12 ± 6 min and the Tmax was 12 ± 12 min. Further, in series [2] (s.c. 100 nmol kg-1), the area under the curve (AUC) turned out to be 8.55 ± 4.63 ng·h/mL, the maximum concentration (Cmax) came out at 8.67 ± 1.97 ng/mL, the T1/2 amounted to 102 ± 132 min and the Tmax worked out at 6 ± 6 min. In series [2] (s.c. 300 nmol kg-1), the area under the curve (AUC) stood at 21.0 ± 5.58 ng·h/mL, the Cmax is 39.7 ± 10.3 ng/mL, the T1/2 stood at 66 ± 54 min and the time of peak concentration (Tmax) came to 6 ± 6 min. Further, the “urinary Ca excretion” value in the series on TPTX rats [3] (after 4-week treatment, s.c. once daily 9 nmol kg^−1) is “No increase”. For the same substance, the “serum Ca” value in the series with TPTX rats [3] (subcutaneous 9 nmol kg^−1 for 4 weeks, target therapeutic range 7.6–11.2 mg dl^−1) is recorded as “transiently increased serum Ca to within the target therapeutic range”. Also, the “serum Ca levels” value in the series on TPTX rats [4] is given as “failed to induce any changes”. Besides, in series [5], the time to peak (Tmax) at the first peak is 15 min and the time to peak (Tmax) at the second peak was 120 min.
